Assay results taken from article PMC10682184, “Molecular basis for the catalytic mechanism of human neutral sphingomyelinases 1 (hSMPD2)” (Nature Communications, 2023).

Molecular target: the molecule itself
Assay: cryo-EM structure; apo hSMPD2 at about 10 mg/mL in 25 mM Hepes pH 7.4, 150 mM NaCl, 2 mM Mg2+, 0.005% LMNG; final map refined with C2 symmetry

B1: human neutral sphingomyelinase 1 (hSMPD2), full length, wild type, twin-Strep tagged (enzyme, UniProt O60906 1-423, looked up)
chain: MKPNFSLRLRIFNLNCWGIPYLSKHRADRMRRLGDFLNQESFDLALLEEVWSEQDFQYLRQKLSPTYPAAHHFRSGIIGSGLCVFSKHPIQELTQHIYTLNGYPYMIHHGDWFSGKAVGLLVLHLSGMVLNAYVTHLHAEYNRQKDIYLAHRVAQAWELAQFIHHTSKKADVVLLCGDLNMHPEDLGCCLLKEWTGLHDAYLETRDFKGSEEGNTMVPKNCYVSQQELKPFPFGVRIDYVLYKAVSGFYISCKSFETTTGFDPHRGTPLSDHEALMATLFVRHSPPQQNPSSTHGPAERSPLMCVLKEAWTELGLGMAQARWWATFASYVIGLGLLLLALLCVLAAGGGAGEAAILLWTPSVGLVLWAGAFYLFHVQEVNGLYRAQAELQHVLGRAREAQDLGPEPQPALLLGQQEGDRTKEQ
notes: human SMPD2 (neutral sphingomyelinase 1), UniProt O60906, full length; cloned from human cDNA into pcDNA3.1(-); In the cryo-EM model the loop preceding TMH1 and residues 403-423 were disordered and not modelled; also called nSMase1; apo hSMPD2; source: HEK293F, transiently transfected, purified (membranes solubilised in LMNG, Strep-Tactin, size-exclusion chromatography)
  stoichiometry N: 2
